According to article PMC5844954, “Insc:LGN tetramers promote asymmetric divisions of mammary stem cells” (Nature Communications, 2018):
One block for each binder: values may come before it.

Tests used:
[1] = target: T1, human Insc of the Insc:LGN:Gαi complex (human, UniProt Q1MX18-2 1-532); experiment: SEC; Par3^PDZ123 mixed in molar excess with purified Insc:LGN:Gαi, SDS-PAGE of fractions; settings: both partners purified
T1 construct: human Inscuteable; Same chain as the Insc chain of m16
T1 sequence (looked up): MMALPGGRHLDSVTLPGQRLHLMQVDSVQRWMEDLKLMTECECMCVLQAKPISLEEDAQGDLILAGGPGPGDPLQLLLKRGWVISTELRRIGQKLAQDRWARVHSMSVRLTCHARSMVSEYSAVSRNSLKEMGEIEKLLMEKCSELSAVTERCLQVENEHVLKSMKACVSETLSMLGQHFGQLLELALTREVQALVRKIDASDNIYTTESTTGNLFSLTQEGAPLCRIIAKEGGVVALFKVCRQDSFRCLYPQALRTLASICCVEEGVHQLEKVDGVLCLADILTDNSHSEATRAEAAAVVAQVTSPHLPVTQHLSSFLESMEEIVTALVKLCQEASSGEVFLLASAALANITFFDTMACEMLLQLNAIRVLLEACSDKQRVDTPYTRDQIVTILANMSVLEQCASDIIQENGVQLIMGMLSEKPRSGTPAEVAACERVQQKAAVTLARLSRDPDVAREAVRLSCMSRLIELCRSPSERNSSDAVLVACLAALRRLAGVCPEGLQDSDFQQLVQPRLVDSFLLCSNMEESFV

[2] = target: T2, Drosophila LGN (Pins) TPR domain, residues 25-406 (Drosophila, UniProt Q9VB22 25-406); experiment: SEC-MALS; static light scattering of the dLGN^TPR:Insc^ASYM complex eluting from a size-exclusion column; settings: both partners purified
T2 construct: Pins (fly orthologue of LGN), Drosophila, residues 25-406 (TPR domain); Monomeric in isolation; two copies stand in the 2:2 tetramer with Insc^ASYM; also called dLGN^TPR; dLGN^25–406
T2 sequence (looked up): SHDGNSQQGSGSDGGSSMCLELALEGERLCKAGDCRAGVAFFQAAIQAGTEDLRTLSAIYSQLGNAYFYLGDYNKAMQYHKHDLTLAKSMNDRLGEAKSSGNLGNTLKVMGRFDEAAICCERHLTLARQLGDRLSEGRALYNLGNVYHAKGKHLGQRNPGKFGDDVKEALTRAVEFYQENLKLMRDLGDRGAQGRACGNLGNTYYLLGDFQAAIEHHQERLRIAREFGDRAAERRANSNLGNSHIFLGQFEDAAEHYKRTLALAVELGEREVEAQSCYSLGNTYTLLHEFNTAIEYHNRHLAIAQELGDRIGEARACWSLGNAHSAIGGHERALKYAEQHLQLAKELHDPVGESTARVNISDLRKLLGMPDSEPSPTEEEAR

[3] = target: the molecule itself; experiment: crystal structure; dLGN 25-406:Insc 283-623 complex, 3.4 Å, space group P212121, four tetramers in the asymmetric unit

binding result [1]: binds
B1: human Par3^PDZ123 (residues 269-685), GST-tag removed (domain or fragment, UniProt Q8TEW0 269-685, looked up)
chain: DDMVKLVEVPNDGGPLGIHVVPFSARGGRTLGLLVKRLEKGGKAEHENLFRENDCIVRINDGDLRNRRFEQAQHMFRQAMRTPIIWFHVVPAANKEQYEQLSQSEKNNYYSSRFSPDSQYIDNRSVNSAGLHTVQRAPRLNHPPEQIDSHSRLPHSAHPSGKPPSAPASAPQNVFSTTVSSGYNTKKIGKRLNIQLKKGTEGLGFSITSRDVTIGGSAPIYVKNILPRGAAIQDGRLKAGDRLIEVNGVDLVGKSQEEVVSLLRSTKMEGTVSLLVFRQEDAFHPRELNAEPSQMQIPKETKAEDEDIVLTPDGTREFLTFEVPLNDSGSAGLGVSVKGNRSKENHADLGIFVKSIINGGAASKDGRLRVNDQLIAVNGESLLGKTNQDAMETLRRSMSTEGNKRGMIQLIVARRIS
notes: human Par3, residues 269-685 (the three PDZ domains), Uniprot Q8TEW0

stoichiometry N [2]: 1 Insc per dLGN (2:2)
B2: Drosophila Inscuteable asymmetric domain, residues 283-623 (domain or fragment, UniProt Q24367 283-623, looked up)
chain: SLRFTASTSTPKSGSKIAKRGKKHPEPVASWMSEQRWAGEPEVMCTLQHKSIAQEAYKNYTITTSAVCKLVRQLQQQALSLQVHFERSERVLSGLQASSLPEALAGATQLLSHLDDFTATLERRGVFFNDAKIERRRYEQHLEQIRTVSKDTRYSLERQHYINLESLLDDVQLLKRHTLITLRLIFERLVRVLVISIEQSQCDLLLRANINMVATLMNIDYDGFRSLSDAFVQNEAVRTLLVVVLDHKQSSVRALALRALATLCCAPQAINQLGSCGGIEIVRDILQVESAGERGAIERREAVSLLAQITAAWHGSEHRVPGLRDCAESLVAGLAALLQPE
notes: Inscuteable, Drosophila, residues 283-623 (asymmetric domain: Insc^PEPT stretch, four-helix bundle, three Armadillo repeats); Two copies stand in the 2:2 tetramer with dLGN^TPR; also called Insc^ASYM; Insc-A^ASYM
binding result [3]: binds
